Assay results reported in the supplement of paper PMC10065799, “High-throughput profiling of sequence recognition by tyrosine kinases and SH2 domains using bacterial peptide display” (eLife, 2023).

Molecular target: Hck (UniProt P08631)
Assay: phosphorylation enrichment, bacterial display (enrichment ratio); higher = better substrate or ligand; peptides without Tyr show the background
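Further: 11-residue human phosphosite peptides and single-mutation variants displayed on the E. coli surface, counted by deep sequencing, each peptide's frequency after selection divided by its frequency in the unselected input library; frequency after pTyr selection over input frequency; kinase dosed for 20-30% of maximal phosphorylation in three min.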

Hck, sequence (P08631 whole entry, looked up): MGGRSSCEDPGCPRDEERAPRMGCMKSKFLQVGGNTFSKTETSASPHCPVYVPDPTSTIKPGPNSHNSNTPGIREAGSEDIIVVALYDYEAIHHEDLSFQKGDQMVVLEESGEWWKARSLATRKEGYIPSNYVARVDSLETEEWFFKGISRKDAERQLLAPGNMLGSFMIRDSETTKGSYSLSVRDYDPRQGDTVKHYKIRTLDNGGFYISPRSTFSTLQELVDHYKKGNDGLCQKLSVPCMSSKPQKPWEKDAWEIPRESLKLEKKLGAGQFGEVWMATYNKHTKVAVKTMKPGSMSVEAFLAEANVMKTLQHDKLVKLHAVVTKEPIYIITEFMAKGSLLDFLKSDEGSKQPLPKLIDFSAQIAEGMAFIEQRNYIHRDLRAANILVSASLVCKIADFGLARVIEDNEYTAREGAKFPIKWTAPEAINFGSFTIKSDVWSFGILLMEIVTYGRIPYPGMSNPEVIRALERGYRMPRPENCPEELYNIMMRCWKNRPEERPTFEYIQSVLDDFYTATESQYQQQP

Sequence | phosphorylation enrichment
EFKKHYGYSLY [ANXA3_Y295] | 0.727
LKEIHYPPFTD [ALDH3B2_Y362_YF] | 0.437
NQELIYEGQRL [TBK1_Y354_R357Q] | 7.73
YRRITYYNWRH [PDE6B_Y556_H557Y] | 0.46
CTTIHCNYMCN [TP53_Y234_Y234C] | 0.503
HGEAYYSEVKP [PAK5_Y182] | 3.85
MKVPLYETPAG [PGM5_Y358_V357L] | 6.03
PLYGEYFTLQI [TP53_Y327_D324Y] | 11.6
DAVAVYDGKIS [SH2D1A_Y7_H8D] | 2.02
SVTCTYFPALN [TP53_Y126_S127F] | 0.554
LSGVIYVILRK [PMP22_Y153] | 0.513
LLVVLYKYRCY [PSEN1_Y154] | 0.708
ALECLYHREKR [TEKT5_Y195] | 0.583
QLCVNYPGGYT [PROS1_Y259] | 0.965
LDYNEYFRGLN [HPRT1_Y198_D201G] | 2.6
LVMFIYAISGM [SCN1A_Y1684_F1687S] | 0.727
EEGEEYGGGGG [TUBA1A_Y451] | 0.602

Sequence | phosphorylation enrichment
FQHLRYIKQLG [SAMHD1_Y146_R143H] | 0.395
PESCFYKESWL [IQGAP2_Y630_L629F] | 0.555
PTTKTYFPHFA [HBA1_Y43_D48A] | 0.754
CTTIHYNYMFN [TP53_Y234_C238F] | 0.498
QRRYLYYYSYL [PTEN_Y176_V175L] | 2.2
FFRCHYPLTTL [TNS4_Y644_R642C] | 0.48
ALLTKYSRSSM [DSCC1_Y374_H376R] | 0.384
FGGRDYSLDEF [MYOF_Y1705_YF] | 0.473
ENKGVYVPMSG [IVD_Y277_L279P] | 0.519
RSRRSYSCQVM [IGLL1_Y192] | 0.64
AARVSYRLASG [DCHS1_Y1582] | 0.378
SEVVPYEPPEV [TP53_Y220_V216E] | 0.582
CRPPFYHRNCM [HGD_Y334_F329C_YF] | 0.48
LAGRYYALKSM [CKB_Y174] | 0.783
SNKELYEKYMI | 0.871
ADGLEYSRTEL [MMUT_Y287_G291E] | 0.547

Molecular target: Jak2 (UniProt O60674)
Assay: as above

Jak2, sequence (O60674 whole entry, looked up): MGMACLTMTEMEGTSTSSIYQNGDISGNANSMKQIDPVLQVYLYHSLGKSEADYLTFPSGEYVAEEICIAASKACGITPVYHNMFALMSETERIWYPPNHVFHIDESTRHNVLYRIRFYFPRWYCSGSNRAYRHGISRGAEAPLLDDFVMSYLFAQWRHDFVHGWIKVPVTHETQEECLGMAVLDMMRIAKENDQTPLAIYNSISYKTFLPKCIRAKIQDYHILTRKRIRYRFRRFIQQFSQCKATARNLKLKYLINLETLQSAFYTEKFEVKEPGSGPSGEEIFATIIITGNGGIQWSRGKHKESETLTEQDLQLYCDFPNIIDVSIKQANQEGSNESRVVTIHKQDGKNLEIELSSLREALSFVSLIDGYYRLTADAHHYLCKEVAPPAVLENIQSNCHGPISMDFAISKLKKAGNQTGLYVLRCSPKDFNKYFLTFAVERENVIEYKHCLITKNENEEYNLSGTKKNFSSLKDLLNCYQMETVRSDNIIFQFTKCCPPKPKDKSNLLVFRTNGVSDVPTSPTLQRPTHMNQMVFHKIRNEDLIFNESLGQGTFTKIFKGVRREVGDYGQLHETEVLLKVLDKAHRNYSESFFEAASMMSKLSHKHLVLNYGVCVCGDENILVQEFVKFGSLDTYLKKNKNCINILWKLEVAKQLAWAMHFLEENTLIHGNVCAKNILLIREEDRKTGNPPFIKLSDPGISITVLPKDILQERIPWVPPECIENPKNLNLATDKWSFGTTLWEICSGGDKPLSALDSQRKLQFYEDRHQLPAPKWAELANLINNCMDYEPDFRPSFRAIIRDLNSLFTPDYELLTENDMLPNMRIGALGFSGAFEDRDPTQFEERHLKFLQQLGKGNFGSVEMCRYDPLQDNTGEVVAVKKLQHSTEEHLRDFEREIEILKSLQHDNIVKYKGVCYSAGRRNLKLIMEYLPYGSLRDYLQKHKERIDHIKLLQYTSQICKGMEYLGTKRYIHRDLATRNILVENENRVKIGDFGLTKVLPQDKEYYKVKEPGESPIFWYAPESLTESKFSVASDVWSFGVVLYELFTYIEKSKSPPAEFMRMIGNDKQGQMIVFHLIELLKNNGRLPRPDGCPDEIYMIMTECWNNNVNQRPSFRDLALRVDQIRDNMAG

Sequence | phosphorylation enrichment
EFKKHYGYSLY [ANXA3_Y295] | 0.555
LKEIHYPPFTD [ALDH3B2_Y362_YF] | 0.659
NQELIYEGQRL [TBK1_Y354_R357Q] | 0.956
YRRITYYNWRH [PDE6B_Y556_H557Y] | 0.47
CTTIHCNYMCN [TP53_Y234_Y234C] | 0.921
HGEAYYSEVKP [PAK5_Y182] | 1.7
MKVPLYETPAG [PGM5_Y358_V357L] | 0.767
PLYGEYFTLQI [TP53_Y327_D324Y] | 15.3
DAVAVYDGKIS [SH2D1A_Y7_H8D] | 0.778
SVTCTYFPALN [TP53_Y126_S127F] | 1.64
LSGVIYVILRK [PMP22_Y153] | 0.633
LLVVLYKYRCY [PSEN1_Y154] | 0.974
ALECLYHREKR [TEKT5_Y195] | 0.884
QLCVNYPGGYT [PROS1_Y259] | 0.999
LDYNEYFRGLN [HPRT1_Y198_D201G] | 3.42
LVMFIYAISGM [SCN1A_Y1684_F1687S] | 1.17
EEGEEYGGGGG [TUBA1A_Y451] | 0.946

Sequence | phosphorylation enrichment
FQHLRYIKQLG [SAMHD1_Y146_R143H] | 0.706
PESCFYKESWL [IQGAP2_Y630_L629F] | 0.941
PTTKTYFPHFA [HBA1_Y43_D48A] | 0.469
CTTIHYNYMFN [TP53_Y234_C238F] | 1
QRRYLYYYSYL [PTEN_Y176_V175L] | 4.97
FFRCHYPLTTL [TNS4_Y644_R642C] | 0.79
ALLTKYSRSSM [DSCC1_Y374_H376R] | 0.816
FGGRDYSLDEF [MYOF_Y1705_YF] | 0.946
ENKGVYVPMSG [IVD_Y277_L279P] | 0.517
RSRRSYSCQVM [IGLL1_Y192] | 0.774
AARVSYRLASG [DCHS1_Y1582] | 0.428
SEVVPYEPPEV [TP53_Y220_V216E] | 1.16
CRPPFYHRNCM [HGD_Y334_F329C_YF] | 0.606
LAGRYYALKSM [CKB_Y174] | 1.29
SNKELYEKYMI | 0.616
ADGLEYSRTEL [MMUT_Y287_G291E] | 0.747

Molecular target: MERTK (UniProt Q12866)
Assay: as above

MERTK, sequence (Q12866 whole entry, looked up): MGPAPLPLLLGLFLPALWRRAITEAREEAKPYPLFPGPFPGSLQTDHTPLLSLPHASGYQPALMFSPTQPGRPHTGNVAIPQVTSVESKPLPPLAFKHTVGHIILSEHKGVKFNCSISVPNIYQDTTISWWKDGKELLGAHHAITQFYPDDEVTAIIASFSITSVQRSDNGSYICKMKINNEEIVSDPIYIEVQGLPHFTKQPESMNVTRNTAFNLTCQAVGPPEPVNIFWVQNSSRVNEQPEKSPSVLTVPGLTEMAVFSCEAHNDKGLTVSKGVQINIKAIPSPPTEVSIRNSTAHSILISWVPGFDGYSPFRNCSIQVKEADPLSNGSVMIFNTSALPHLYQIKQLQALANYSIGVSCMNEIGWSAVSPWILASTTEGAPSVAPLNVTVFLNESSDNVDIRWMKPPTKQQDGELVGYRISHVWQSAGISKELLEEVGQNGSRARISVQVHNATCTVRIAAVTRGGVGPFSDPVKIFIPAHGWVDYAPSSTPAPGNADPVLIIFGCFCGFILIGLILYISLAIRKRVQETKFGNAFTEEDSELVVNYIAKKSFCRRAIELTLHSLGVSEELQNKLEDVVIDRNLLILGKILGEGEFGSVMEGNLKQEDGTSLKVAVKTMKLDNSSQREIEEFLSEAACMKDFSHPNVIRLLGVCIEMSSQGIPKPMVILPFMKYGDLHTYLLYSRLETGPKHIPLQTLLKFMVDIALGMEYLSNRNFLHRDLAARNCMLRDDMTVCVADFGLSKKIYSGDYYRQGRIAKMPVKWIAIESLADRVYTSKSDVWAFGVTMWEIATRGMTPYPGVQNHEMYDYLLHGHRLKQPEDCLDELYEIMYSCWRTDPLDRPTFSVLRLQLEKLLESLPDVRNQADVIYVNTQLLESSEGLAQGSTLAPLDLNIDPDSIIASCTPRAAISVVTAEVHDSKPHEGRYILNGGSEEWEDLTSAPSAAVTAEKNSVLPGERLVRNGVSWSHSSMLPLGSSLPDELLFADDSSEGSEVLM

Sequence | phosphorylation enrichment
EFKKHYGYSLY [ANXA3_Y295] | 0.401
LKEIHYPPFTD [ALDH3B2_Y362_YF] | 0.329
NQELIYEGQRL [TBK1_Y354_R357Q] | 1.52
YRRITYYNWRH [PDE6B_Y556_H557Y] | 0.512
CTTIHCNYMCN [TP53_Y234_Y234C] | 0.395
HGEAYYSEVKP [PAK5_Y182] | 11.2
MKVPLYETPAG [PGM5_Y358_V357L] | 9.79
PLYGEYFTLQI [TP53_Y327_D324Y] | 9.96
DAVAVYDGKIS [SH2D1A_Y7_H8D] | 0.498
SVTCTYFPALN [TP53_Y126_S127F] | 0.608
LSGVIYVILRK [PMP22_Y153] | 0.364
LLVVLYKYRCY [PSEN1_Y154] | 0.746
ALECLYHREKR [TEKT5_Y195] | 0.406
QLCVNYPGGYT [PROS1_Y259] | 0.513
LDYNEYFRGLN [HPRT1_Y198_D201G] | 0.733
LVMFIYAISGM [SCN1A_Y1684_F1687S] | 0.725
EEGEEYGGGGG [TUBA1A_Y451] | 0.485

Sequence | phosphorylation enrichment
FQHLRYIKQLG [SAMHD1_Y146_R143H] | 0.363
PESCFYKESWL [IQGAP2_Y630_L629F] | 0.538
PTTKTYFPHFA [HBA1_Y43_D48A] | 0.675
CTTIHYNYMFN [TP53_Y234_C238F] | 0.681
QRRYLYYYSYL [PTEN_Y176_V175L] | 7.18
FFRCHYPLTTL [TNS4_Y644_R642C] | 0.4
ALLTKYSRSSM [DSCC1_Y374_H376R] | 0.552
FGGRDYSLDEF [MYOF_Y1705_YF] | 0.405
ENKGVYVPMSG [IVD_Y277_L279P] | 0.451
RSRRSYSCQVM [IGLL1_Y192] | 0.9
AARVSYRLASG [DCHS1_Y1582] | 0.422
SEVVPYEPPEV [TP53_Y220_V216E] | 0.473
CRPPFYHRNCM [HGD_Y334_F329C_YF] | 0.452
LAGRYYALKSM [CKB_Y174] | 3.22
SNKELYEKYMI | 0.597
ADGLEYSRTEL [MMUT_Y287_G291E] | 0.437

Tested on: c-Abl (mouse)
Assay: as above

Sequence | phosphorylation enrichment
EFKKHYGYSLY [ANXA3_Y295] | 0.541
LKEIHYPPFTD [ALDH3B2_Y362_YF] | 0.559
NQELIYEGQRL [TBK1_Y354_R357Q] | 2.65
YRRITYYNWRH [PDE6B_Y556_H557Y] | 0.539
CTTIHCNYMCN [TP53_Y234_Y234C] | 0.775
HGEAYYSEVKP [PAK5_Y182] | 1.79
MKVPLYETPAG [PGM5_Y358_V357L] | 11.2
PLYGEYFTLQI [TP53_Y327_D324Y] | 9.14
DAVAVYDGKIS [SH2D1A_Y7_H8D] | 0.728
SVTCTYFPALN [TP53_Y126_S127F] | 1.13
LSGVIYVILRK [PMP22_Y153] | 0.923
LLVVLYKYRCY [PSEN1_Y154] | 1.57
ALECLYHREKR [TEKT5_Y195] | 0.927
QLCVNYPGGYT [PROS1_Y259] | 0.845
LDYNEYFRGLN [HPRT1_Y198_D201G] | 0.847
LVMFIYAISGM [SCN1A_Y1684_F1687S] | 1.17
EEGEEYGGGGG [TUBA1A_Y451] | 0.815

Sequence | phosphorylation enrichment
FQHLRYIKQLG [SAMHD1_Y146_R143H] | 0.502
PESCFYKESWL [IQGAP2_Y630_L629F] | 0.766
PTTKTYFPHFA [HBA1_Y43_D48A] | 0.646
CTTIHYNYMFN [TP53_Y234_C238F] | 0.926
QRRYLYYYSYL [PTEN_Y176_V175L] | 0.494
FFRCHYPLTTL [TNS4_Y644_R642C] | 0.595
ALLTKYSRSSM [DSCC1_Y374_H376R] | 0.697
FGGRDYSLDEF [MYOF_Y1705_YF] | 0.68
ENKGVYVPMSG [IVD_Y277_L279P] | 0.503
RSRRSYSCQVM [IGLL1_Y192] | 0.797
AARVSYRLASG [DCHS1_Y1582] | 0.423
SEVVPYEPPEV [TP53_Y220_V216E] | 0.784
CRPPFYHRNCM [HGD_Y334_F329C_YF] | 0.58
LAGRYYALKSM [CKB_Y174] | 0.594
SNKELYEKYMI | 0.487
ADGLEYSRTEL [MMUT_Y287_G291E] | 0.621
